Results taken from paper PMC13082707, “Role of the C-terminal modules of Klebsiella phage KP32 receptor-binding protein gp38 in protein and phage functionality” (PLOS Pathogens, 2026).

Columns and labels:
[1] = target: GFP_KP32gp38_LIN-CBM-LEC (Klebsiella phage KP32); assay: SEC-MALS; SEC-MALLS of selected KP32gp38 variants to assess the molecular weight of their oligomeric state, buffer and concentrations not told
[2] = target: KP32gp38_CP-E-LIN_K11gp0043_CBM-LEC (Klebsiella phage KP32 | Klebsiella phage K11); assay: as above
[3] = target: KP32gp38_CP-E_K11gp0043_LIN-CBM-LEC (Klebsiella phage KP32 | Klebsiella phage K11); assay: as above
[4] = target: KP32gp38_LEC (Klebsiella phage KP32); assay: as above
[5] = target: KP32gp38_LIN-CBM-LEC (Klebsiella phage KP32); assay: as above
[6] = target: KP32gp38_Δ(LIN-CBM) (Klebsiella phage KP32); assay: as above
[7] = target: KP32gp38_ΔCBM (Klebsiella phage KP32); assay: as above
[8] = target: KP32gp38_ΔLEC (Klebsiella phage KP32)
[9] = target: KP32gp38_ΔLEC (Klebsiella phage KP32); assay: SEC-MALS; SEC-MALLS of selected KP32gp38 variants to assess the molecular weight of their oligomeric state, buffer and concentrations not told
[10] = target: the molecule itself; assay: as above

GFP_KP32gp38_LIN-CBM-LEC (domain or fragment)
stoichiometry N [1]: 3

KP32gp38_CP-E-LIN_K11gp0043_CBM-LEC
stoichiometry N [2]: 3

KP32gp38_CP-E_K11gp0043_LIN-CBM-LEC
stoichiometry N [3]: 3

KP32gp38_LEC (domain or fragment)
stoichiometry N [4]: > 25

KP32gp38_LIN-CBM-LEC (domain or fragment)
stoichiometry N [5]: 3

KP32gp38_Δ(LIN-CBM) (domain or fragment)
stoichiometry N [6]: 3

KP32gp38_ΔCBM (domain or fragment)
stoichiometry N [7]: 3

KP32gp38_ΔLEC (domain or fragment)
enzymatic activity (halo formation on K21/KL163 lawns) compared to the WT [8]: 1000 fold
percent dimers [9]: 10%
stoichiometry N [9]: 2

B1: KP32gp38_WT, receptor-binding protein 2 (RBP2) of Klebsiella phage KP32 (natural protein, UniProt D1L2X1 1-576, looked up)
chain: MLDNFNQPKGSTIGVLKDGRTIQEAFDSLPRLESFSGSTATDKLRAAITLGVSEVAIGPVEGNGGRPYEFGDVVIPYPLRIVGCGSQGINVTKGTVLKRSAGASFMFHFTGEGQAQRPMGGGLFNINLNGDTATALGDIIKVTQWSYFKANNCAFQNMAGWGIRLKDVMESNISGNLFRRLGGPSGGGILFDDVRSAVTDNVNNLHIEDNTFALMSGPWIGSTANSNPDLIWIVRNKFEFDGTPAAPNTVDSYVLDFQQLSRAFIQDNGFTHFTTERNRYVGVLRVGATAVGTIKFEDNLLFACESAGLIAGGIVVSRGNVNNQGSATTAIKQFTNTSSKLCKLERVINVQSNGNVSVGQQILPDGYINMAELPGNTRLPSEYDADGETTSVLRVPANTQVRQWSVPKMYKDGLTVTKVTVRAKGAAAGAILSLQSGSTVLSTKSIDAGVWKNYVFYVKANQLQETLQLRNTGTADVLADGMVFGKVDYIDWDFAIAPGTLAAGAKYTTPNQSYLDVAGMRVQAVSIPMFDGPTTGLQVWVEATSANGSFVVVMKNDTGSELVTTVTRCRVRAFVS
notes: KP32gp38 (RBP2, capsule depolymerase/tailspike) of Klebsiella phage KP32; domains CP-E-LIN-CBM-LEC; Expressed from pVTD3 (C-terminal His-tag); also called KP32gp38 WT depolymerase; source: E. coli BL21(DE3), purified (His GraviTrap or HisPur Ni-NTA)
stoichiometry N [10]: 3
